Several values for one entry are separate records, joined by “and”; a condition that tells them apart may be missing. Equal entries are not always repeated. Where two headings read alike, the source gives them in different places.
Columns and labels:
[1] = molecular target: T1, human NKG2D (hNKG2D) on the cell surface (human, UniProt P26718 1-216); assay: flow cytometry, dose-response on NKG2D- and DAP10-expressing BaF/3 cells
T1 construct: Carried by BaF/3 cells co-transfected with full-length NKG2D and DAP10, or naturally by human NK, CD8+ T and gamma-delta T cells (PBMC, whole blood); also called cell-surface NKG2D; NKG2D- and DAP10-expressing BaF/3 cells
T1 chain: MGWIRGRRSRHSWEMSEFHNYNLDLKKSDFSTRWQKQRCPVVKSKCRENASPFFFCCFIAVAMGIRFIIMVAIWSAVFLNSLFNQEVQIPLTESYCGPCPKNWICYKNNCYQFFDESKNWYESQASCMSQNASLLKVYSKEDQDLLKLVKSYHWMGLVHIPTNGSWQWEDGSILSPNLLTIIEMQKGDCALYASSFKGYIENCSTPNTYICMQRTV

[2] = molecular target: T2, recombinant NKG2D-Fc protein (R&D Systems), immobilized on a Biacore CM5 chip (human, UniProt P26718 78-216); assay: SPR (Biacore), NKG2D-Fc immobilized on CM5 chip at 1200 RU, antibody in solution, Langmuir fit
T2 construct: also called NKG2D-hFc; hFc-NKG2D; not shown: Fc portion of the purchased fusion protein
T2 sequence: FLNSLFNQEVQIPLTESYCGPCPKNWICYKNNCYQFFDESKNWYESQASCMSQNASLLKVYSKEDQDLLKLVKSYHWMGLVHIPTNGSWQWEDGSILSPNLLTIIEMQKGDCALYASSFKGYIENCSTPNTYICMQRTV
Protocol: Protein immobilisation. […] Recombinant NKG2D-Fc proteins were immobilized covalently to carboxyl groups in the dextran layer on a Sensor Chip CM5 (Biacore GE Healthcare; BR-1000-14). The sensor chip surface was activated with EDC/NHS (N-ethyl-N′-(3-dimethylaminopropyl)carbodiimidehydrochloride and N-hydroxysuccinimide (Biacore GE Healthcare; BR-1000-50)). […] Deactivation of the remaining activated groups was performed using 100 mM ethanolamine pH 8 (Biacore GE Healthcare; BR-1000-50).
[…] The resulting sensorgrams were analysed by global fitting using the Langmuir model. The dissociation constant (KD) was calculated as KD=kd/ka.

[3] = molecular target: T1, human NKG2D (hNKG2D) on the cell surface; assay: cell-based or functional assay
[4] = molecular target: T1, human NKG2D (hNKG2D) on the cell surface; assay: flow cytometry blocking assay on NKG2D/DAP10-expressing BaF/3 cells: pre-incubation with the antibody, then 1 µg MICA-mFc; y axis % remaining MICA-Fc binding
Protocol: (§1) Flow cytometry assays—MICA blockade. […] The cells were then analysed on a B&D FACSArray flow cytometer. The degree of reduction of MICA binding by preincubation was analysed as MFI (mean fluorescence intensity) of binding with pre-incubation in % of binding of MICA without preincubation.

[5] = molecular target: T1, human NKG2D (hNKG2D) on the cell surface; assay: flow cytometry, NKG2D/DAP10 BaF/3 cells pre-incubated with antibody, then 1 µg MICA-mFc (competitor)
Protocol: as §1

[6] = molecular target: T1, human NKG2D (hNKG2D) on the cell surface; assay: as above
Protocol: as §1

- EC50 [1]: 0.051 µg/mL and ~0.34 nM
- Kd [2]: 0.178 nM
- IC50 (read off the curve) [4]: ~0.02 nM
- Full blockade of 1 µg MICA-Fc (antibody concentration) [5]: 0.59 µg/mL
- IC50 [5]: 0.019 µg/mL
- IC50 [6]: 0.017 nM
B1: 16F16, fully human anti-hNKG2D monoclonal antibody, recombinantly expressed as IgG4 isotype (antibody, V domains shown)
VH: EVQLVESGGGLVKPGGSLRLSCAASGFTFSSYSMNWVRQAPGKGLEWVSSITSSSSYIYYADSVKGRFTISRDNAKNSLYLQMNSLRAEDTAVYYCARDRRYFDWFPLDYRGQGTLVTVSS
VL: DIQMTQSPSSLSASVGDRVTITCRASQGISSWLAWYQQKPEKAPKSLIYAASSLQSGVPSRFSGSGSGTDFTLTISSLQPEDFATYYCQQYNGYPYTFGQGTKLEIKR
notes: also called 16F16 IgG4; 16F16 (IgG4)
- EC50 (µg/ml), inhibition of NK cell killing of MICA-expressing target cells (51Cr release) [3]: 0.14 µg/mL
- EC50 (µg/ml), inhibition of NK cell killing of ULPB3-expressing target cells (51Cr release) [3]: 0.35 µg/mL

— patent US20100056764A1 (Novo Nordisk, published 2010)
